{"source": "patent US12104173B2", "about": "“Method for differentiation of human pluripotent stem cell lines in suspension culture” (AGENCY FOR SCIENCE, TECHNOLOGY AND RESEARCH, priority 2018, dated 2024)", "molecules": {"B1": {"name": "BMP4: bone morphogenic protein; BMP4-based protocol uses 50 ng/ml BMP4 (protein, UniProt P12644 293-408, looked up)", "Bone morphogenetic protein 4": "SPKHHSQRARKKNKNCRRHSLYVDFSDVGWNDWIVAPPGYQAFYCHGDCPFPLADHLNSTNHAIVQTLVNSVNSSIPKACCVPTELSAISMLYLDEYDKVVLKNYQEMVVEGCGCR"}}, "key": {"[1]": {"test_system": "hES-3 hESC line", "assay": "CHIR dose: hematopoietic/erythroid differentiation of agitated hPSC-MC aggregates", "format": "cell-based, human", "conditions": "optimal dose of CHIR-99021, day 4"}, "[2]": {"test_system": "hES-3-MC aggregates", "assay": "BMP4-based differentiation of hES-3-MC aggregates from static or agitated hPSC expansion", "format": "cell-based, human", "conditions": "BMP4-based protocol; for erythroid cells: starting from 2×10^5 hematopoietic precursors, repeated attempts; for T-bra: Day 2; for KDR: Day 4; for total hematopoietic precursors per well: after 2 weeks of differentiation; for total erythroblast per well: day 28", "from_the_text": "To test the hypothesis that agitation condition may be a major factor for variable differentiation, hES-3 that was initially expanded under either static (static human pluripotent stem cell (hPSC) expansion) or agitation (agitated human pluripotent stem cell expansion) condition for 7 days were differentiated under static condition using a BMP4-based differentiation protocol. […] (FIG. 10). […] Like-wise, subsequent generation of erythroblast was also severely impaired in cultures derived from agitated as compared to static hPSC expansion group (total erythroblast per well: 4.11±2.4×10^4 vs 26.2±4.7×10^6, respectively, p=0.005; total CD235a population: 0.51±0.1% vs 51.8±2.0%, p<0.0001) (FIG. 1E).\n(§1) Mesoderm induction of hPSC-MC aggregates using BMP4 based protocol has previously been described. One million HPSC-MC aggregates were cultured in Stemline II hematopoietic stem cell expansion medium (Sigma-Aldrich, USA) containing 50 ng/ml of BMP4 and 50 ng/ml of VEGF165 under static condition. 48 hours later, half the medium was removed and replaced with Stemline II medium containing 50 ng/ml of BMP4, 50 ng/ml of VEGF165 and 20 ng/ml of bFGF (all cytokines from STEMCELL Technologies). HPSC-MC aggregates were cultured for a further 48 hours before being used for hematopoietic precursors differentiation.\nas §1, with “One” for “Mesoderm induction of hPSC-MC aggregates using BMP4 based protocol has previously been described. One”, “VEGF165.” for “VEGF165 under static condition.”, “STEMCELL.” for “STEMCELL”, “precursor expansion.” for “precursors differentiation.”\nHPSC-MC aggregates were dissociated into single cells by treatment with TrypLE. Express (ThermoFisher Scientific) for 5 minutes at 37° C., passed through 40 μm cell strainer (Greiner Bio-one), centrifuged at 1300 rpm for 3 minutes to pellet cells, and rinsed once with phosphate buffered saline (PBS) before re-suspension in Stemline II medium. Two hundred thousand cells in 100 μl of Stemline II medium were transferred to a 6-well ultra-low attachment plate and cultured with Blast growth medium (BGM) for 2 weeks in static conditions as detailed herein.\nHematopoietic precursors were mixed with equal volume of Stemline II medium containing 50 ng/ml of SCF (STEMCELL. Technologies) and 3 U/ml EPO (Peprotech, USA), for an additional 7 days. Subsequently, cells were diluted 10-fold with PBS and pelleted by centrifugation at 3000 rpm for 10 minutes. Erythroblast cells were seeded at a concentration of 2.5×10^5 cells/ml in 3 ml of Stemline II media containing 1× Serum Replacement 3 (Sigma-Aldrich), 0.3% v/v Ex-CYTE growth enhancement media supplement (Merck, USA), 100 ng/ml SCF, 3 U/ml EPO, 1 μM hydrocortisone (Sigma-Aldrich), 200 μg/ml holo-transferrin (MP Biomedicals) and 1× penicillin-streptomycin (ThermoFisher Scientific) in 6-well ultra-low attachment plates under static condition. Cells were re-suspended in fresh media every 4 days and reseeded at 2.5×10^5cells/m=l when cell concentrations exceeded 2×10^6cells/ml. Cumulative fold-expansion was calculated by multiplying fold-expansion achieved between passaging of cells over the course of experiment(s).\nFor flow cytometric analysis of mesoderm and hematopoietic surface markers, cells were incubated for 15 minutes at room temperature with 1:50 diluted direct-conjugated antibodies. The following human antibodies were used: T-brachyury-FITC (R&D Systems), KDR-PE (Miltenyi Biotec), CD31-PE, CD43-FITC, CD 45-PE, CD71-APC, CD235a-FITC (all from BD Biosciences, USA). The following antibodies were used as isotype-controls: mouse IgG1-FITC and PE (Miltenyi Biotec, Germany), mouse IgG2bk-FITC and mouse IgG2ak-APC (BD Biosciences). […]"}}}
{"molecule": "Cc1c[nH]c(-c2cnc(NCCNc3ccc(C#N)cn3)nc2-c2ccc(Cl)cc2Cl)n1", "note": "[CHIR-99021, 6-[[2-[[4-(2,4-Dichlorophenyl)-5-(5-methyl-1H-imidazol-2-yl)-2-pyrimidinyl]amino]ethyl]amino]-3-pyridinecarbonitrile]", "values": [{"measurement": "Mesoderm induction % KDR+ PDGFRα−", "setting": "[1]", "result": 14.6, "unit": "%"}]}
{"molecule": "B1", "values": [{"measurement": "erythroid cells", "setting": "[2]; MC-aggregates expanded in agitation condition", "result": "0.004-4.2×10^7 erythroid cells"}, {"measurement": "erythroid cells", "setting": "[2]; MC-aggregates expanded in static condition", "result": "0.25-7.3×10^7 erythroid cells"}, {"measurement": "total CD235a population", "setting": "[2]; agitated hPSC expansion", "result": "0.51±0.1", "unit": "%"}, {"measurement": "T-bra", "setting": "[2]; agitated hPSC expansion", "result": "0.50±0.02", "unit": "%"}, {"measurement": "KDR", "setting": "[2]; agitated hPSC expansion", "result": "1.1±0.12", "unit": "%"}, {"measurement": "total hematopoietic precursors per well", "setting": "[2]; agitated hPSC expansion", "result": "1.39×10^5±2.18×10^4 per well"}, {"measurement": "total erythroblast per well", "setting": "[2]; agitated hPSC expansion", "result": "4.11±2.4×10^4 per well"}, {"measurement": "total CD235a population", "setting": "[2]; static hPSC expansion", "result": "51.8±2.0", "unit": "%"}, {"measurement": "T-bra", "setting": "[2]; static hPSC expansion", "result": "32.6±1.2", "unit": "%"}, {"measurement": "KDR", "setting": "[2]; static hPSC expansion", "result": "27.9±3.3", "unit": "%"}, {"measurement": "total hematopoietic precursors per well", "setting": "[2]; static hPSC expansion", "result": "5.77×10^6±6.30×10^5 per well"}, {"measurement": "total erythroblast per well", "setting": "[2]; static hPSC expansion", "result": "26.2±4.7×10^6 per well"}]}
